Experimental data: article PMC8646926 (Advanced Biology, 2021)

Biological target: the molecule itself
Assay: 15N-1H HSQC NMR (line broadening and signal loss)

B1: SARS-CoV-2 Nsp9, wild type, purified recombinant (natural protein, UniProt P0DTD1 4141-4253, looked up)
chain: NNELSPVALRQMSCAAGTTQTACTDDNALAYYNTTKGGRFVLALLSDLQDLKWARFPKSDGTGTIYTELEPPCRFVTDTPKGPKVKYLYFIKGLNNLNRGMVLGSLAATVRLQ
modifications: 15N or 13C,15N isotope labelling in the NMR experiments
B1: binds.
